Experimental data taken from PMC8191779, “Hinge like domain motion facilitates human RBMS1 protein binding to proto-oncogene c-myc promoter”.
Positions count from the first letter of the chain named. Numbers in names are those of the source.

T1: RBMS1 (58-224) (Homo sapiens) (UniProt P29558)
T1 sequence: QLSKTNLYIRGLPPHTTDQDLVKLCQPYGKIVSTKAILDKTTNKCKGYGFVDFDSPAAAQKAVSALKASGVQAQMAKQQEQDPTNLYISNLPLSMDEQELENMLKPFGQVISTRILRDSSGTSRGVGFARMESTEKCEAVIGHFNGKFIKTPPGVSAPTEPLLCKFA

T2: RBMS1 (58-224) Q138E (Homo sapiens, UniProt P29558 62-223, Q138E)
T2 sequence: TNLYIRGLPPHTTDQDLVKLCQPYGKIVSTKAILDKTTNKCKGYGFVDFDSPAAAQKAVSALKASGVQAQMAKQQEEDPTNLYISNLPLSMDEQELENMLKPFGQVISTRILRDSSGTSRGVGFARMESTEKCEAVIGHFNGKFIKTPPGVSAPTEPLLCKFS

T3: RBMS1 (58-224) Y105S (Homo sapiens, UniProt P29558 62-223, Y105S)
T3 sequence: T2 sequence with Y44S, E77Q

T4: RBMS1 (58-224) F185V (Homo sapiens, UniProt P29558 62-223, F185V)
T4 sequence: T2 sequence with E77Q, F124V

T5: RBMS1 (58-224) F107L (Homo sapiens, UniProt P29558 62-223, F107L)
T5 sequence: T2 sequence with F46L, E77Q

T6: RBMS1 (58-224) (Homo sapiens, UniProt P29558 62-223)
T6 sequence: T2 sequence with E77Q

T7: RBMS1 RRM2 (Homo sapiens, UniProt P29558 138-224)
T7 sequence: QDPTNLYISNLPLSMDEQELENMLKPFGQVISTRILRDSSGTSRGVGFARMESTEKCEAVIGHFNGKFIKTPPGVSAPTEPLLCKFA

T8: RBMS1 (58-224) (Homo sapiens, UniProt P29558 58-224)
T8 sequence: T1 sequence

T9: RBMS1 RRM1 (Homo sapiens, UniProt P29558 58-137)
T9 sequence: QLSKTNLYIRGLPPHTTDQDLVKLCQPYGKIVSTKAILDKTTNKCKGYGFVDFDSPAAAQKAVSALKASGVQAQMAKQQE

T10: RBMS1 linker mutant Q135E/Q138E (Homo sapiens, UniProt P29558 58-224, Q135E)
T10 sequence: T1 sequence with Q78E


Target: T1, RBMS1 (58-224) (Homo sapiens)
Assay: ITC
Settings: ITC: 20 mM sodium phosphate pH 7.1, 50 mM NaCl, 303 K, 0.1 mM protein in cell, 1-1.5 mM DNA in syringe; NMR: 20 mM sodium phosphate pH 7.1, 100 mM NaCl, 5% D2O

Q: How did the Kd turn out when c-myc 21 bp promoter sequence was run?
A: The Kd was 2.6 µM.

Target: T2, RBMS1 (58-224) Q138E
Assay: ITC; 20 mM sodium phosphate pH 7.1, 50 mM NaCl, 303 K (30 C); 0.1 mM protein in cell, 1-1.5 mM DNA in syringe
Settings: protein: recombinant; tags: N-term GAMG left after TEV cleavage of 6xHis

Q: With TGGTATT (ssDNA) as the molecule, how does the Kd read?
A: Its Kd is 17.6 µM.

Q: How did the Kd turn out when TCTTATT (ssDNA) was run?
A: Its Kd is 13.9 µM.

Q: TGGTTTT (ssDNA) was tested. Which Kd did it give?
A: The Kd was 18.1 µM.

Target: T3, RBMS1 (58-224) Y105S
Assay: as above
Settings: protein: recombinant; tags: N-term GAMG left after TEV cleavage of 6xHis

Q: Which Kd does the source give for TGGTATT (ssDNA) here?
A: The Kd was 151 µM.

Q: Does TCTTATT (ssDNA) bind?
A: Result: no binding

Q: How did the Kd turn out when TGGTTTT (ssDNA) was run?
A: The Kd was 418 µM.

Target: T4, RBMS1 (58-224) F185V
Assay: as above
Settings: protein: recombinant; tags: N-term GAMG left after TEV cleavage of 6xHis

Q: TGGTATT (ssDNA) was tested. Which Kd did it give?
A: The Kd was 23.2 µM.

Q: For TCTTATT (ssDNA), which Kd is on record?
A: The Kd was 6.02 µM.

Q: With TGGTTTT (ssDNA) as the molecule, how does the Kd read?
A: The Kd was 22 µM.

Target: T5, RBMS1 (58-224) F107L
Assay: as above
Settings: protein: recombinant; tags: N-term GAMG left after TEV cleavage of 6xHis

Q: Which Kd does the source give for TGGTATT (ssDNA) here?
A: Its Kd is 182 µM.

Q: How did the Kd turn out when TCTTATT (ssDNA) was run?
A: Its Kd is 142 µM.

Q: For TGGTTTT (ssDNA), which Kd is on record?
A: The Kd was 83.3 µM.

Target: T6, RBMS1 (58-224)
Assay: as above
Settings: protein: recombinant; tags: N-term GAMG left after TEV cleavage of 6xHis

Q: Which Kd does the source give for TGGTATT (ssDNA) here?
A: Its Kd is 6.7 µM.

Q: For TCTTATG (ssDNA), which Kd is on record?
A: Its Kd is 19.3 µM.

Q: For CTTTA (ssDNA), which Kd is on record?
A: The Kd was 55.5 µM.

Q: GGTAAT (ssDNA) was tested. Which Kd did it give?
A: The Kd was 14.9 µM.

Q: For TGGTCAT (ssDNA), which Kd is on record?
A: The Kd was 17.5 µM.

Q: With TGCTATT (ssDNA) as the molecule, how does the Kd read?
A: Its Kd is 8.69 µM.

Q: With TGTTATT (ssDNA) as the molecule, how does the Kd read?
A: Its Kd is 15.2 µM.

Q: How did the Kd turn out when TGGTACT (ssDNA) was run?
A: Its Kd is 15.9 µM.

Q: Does GTAT (ssDNA) bind?
A: Result: no binding

Q: With TGGAATT (ssDNA) as the molecule, how does the Kd read?
A: The Kd was 21 µM.

Q: For TCGTATT (ssDNA), which Kd is on record?
A: The Kd was 7.7 µM.

Q: With TTTTT (ssDNA) as the molecule, how does the Kd read?
A: Its Kd is 79.4 µM.

Q: How did the Kd turn out when TCCCATT (ssDNA) was run?
A: Its Kd is 8.2 µM.

Q: For TGGTAAT (ssDNA), which Kd is on record?
A: The Kd was 9.6 µM.

Q: With TCGGATG (ssDNA) as the molecule, how does the Kd read?
A: Its Kd is 35.5 µM.

Q: Which Kd does the source give for TGGTGTT (ssDNA) here?
A: The Kd was 16.1 µM.

Q: TCTTATT (ssDNA) was tested. Which Kd did it give?
A: The Kd was 3.84 µM.

Q: Does TTAT (ssDNA) bind?
A: Result: no binding

Q: TCATATT (ssDNA) was tested. Which Kd did it give?
A: The Kd was 11.9 µM.

Q: With TATAATT (ssDNA) as the molecule, how does the Kd read?
A: Its Kd is 37 µM.

Q: Which Kd does the source give for TGGTTTT (ssDNA) here?
A: Its Kd is 4.04 µM.

Q: How did the Kd turn out when TGGTATC (ssDNA) was run?
A: The Kd was 6.2 µM.

Q: With GTTAT (ssDNA) as the molecule, how does the Kd read?
A: The Kd was 81.3 µM.

Q: Does ATAT (ssDNA) bind?
A: Result: no binding

Q: With TGGGATT (ssDNA) as the molecule, how does the Kd read?
A: The Kd was 36.4 µM.

Target: T7, RBMS1 RRM2
Assay: ITC; ITC: 20 mM sodium phosphate pH 7.1, 50 mM NaCl, 303 K, 0.1 mM protein in cell, 1-1.5 mM DNA in syringe; NMR: 20 mM sodium phosphate pH 7.1, 100 mM NaCl, 5% D2O
Settings: protein: recombinant; tags: 6xHis removed by TEV; single strand

Q: Does TGGTATT (ssDNA) bind?
A: Result: no binding

Q: Does TGGTTTT (ssDNA) bind?
A: Result: no binding

Target: T8, RBMS1 (58-224)
Assay: as above
Settings: protein: recombinant; tags: N-term GAMG left after TEV cleavage of 6xHis; single strand

Q: How did the Kd turn out when TGTTATT (ssDNA) [TGTTATT (C2G)] was run?
A: Its Kd is 15.2 µM.

Q: How did the Kd turn out when TCTTATT (ssDNA) [c-myc consensus TCTTATT] was run?
A: Its Kd is 3.84 µM.

Target: T9, RBMS1 RRM1
Assay: as above
Settings: protein: recombinant; tags: 6xHis removed by TEV; single strand

Q: With TCTTATT (ssDNA) [c-myc consensus TCTTATT] as the molecule, how does the Kd read?
A: The Kd was 55.2 µM.

Target: T9, RBMS1 RRM1
Assay: as above
Settings: protein: recombinant; tags: 6xHis removed by TEV; single strand
Remark: another data set of the same source

Q: TGGTATT (ssDNA) was tested. Which binding signal did it give?
A: Its binding signal is 10 fold lower affinity than RBMS1 58-224.

Target: T10, RBMS1 linker mutant Q135E/Q138E
Assay: as above
Settings: protein: recombinant; tags: 6xHis removed by TEV; single strand

Q: With TCTTATT (ssDNA) [c-myc consensus TCTTATT] as the molecule, how does the binding signal read?
A: Its binding signal is 10 fold lower binding than wild type.
